US20250304677A1 (VIB VZW, published 2025)

Key:
[1] = target: T1, mouse folate receptor alpha (mFRα), recombinant protein (mouse, UniProt P35846 25-232); assay: BLI, FRα on AR2G biosensors, 1:1 model
T1 construct: Bought recombinant proteins (e.g. biotinylated, Acro Biosystems FO1-M82E9); also called mFOLR1; Ms FOLR1
Experimental: (§1) As a next step, the kinetic binding constants were determined using BLI ^{∘}Table 3). […] Similar to the ELISA results ^{∘}FIG. 1A-B), higher binding affinities were measured for mouse FRα than human FRα, with KD values […] one order of magnitude in most cases. […] For 3HFO28, binding to human FRα could not be confirmed by BLI, and this VHH was excluded from further characterization.
(§2) The kinetic parameters were calculated using a 1:1 binding model.

[2] = target: T2, human folate receptor alpha (hFRα), recombinant protein (human, UniProt P15328 25-233); assay: BLI, FRα on AR2G biosensors, 1:1 model
T2 construct: Bought recombinant proteins (His-tagged, or biotinylated via Avi-tag, e.g. AcroBiosystems FO1-H82E2, F01-H52H1); also called hFOLR1; huFOLR1
Experimental: as §1, §2

[3] = target: T3, human folate receptor alpha expressed on cells (transfected HEK293T, HeLa, MCF7, MDA-MB-231) (human, UniProt P15328 25-234); assay: flow cytometry on HEK293T cells overexpressing human FOLR1, His tag detection, PE MFI, non-linear fit
T3 construct: HEK293T transiently transfected with human FOLR1; also called native human FRα; cell-expressed human FOLR1
Experimental: (§3) Data were normalized and technical replicates were plotted as mean±SD. Data were fitted by non-linear regression and the half-maximal effective concentration ^{∘}EC50) was calculated using GraphPad Prism 9 software. ^{∘}FIG. 1C and FIG. 1D) Binding affinity determination of anti-FOLR1 VHHs for native FOLR1. Mouse ^{∘}FIG. 1C) or human FOLR1 FIG. 1D) was overexpressed on HEK293T cells and binding of the anti-FOLR1 VHHs was assessed using flow cytometry. The mean fluorescence intensity ^{∘}MFI) of the phycoerythrin signal was plotted for each VHH concentration. Data were fitted by non-linear regression using GraphPad Prism 9 software. ^{∘}FIG. 1E) Determination of the competition of representative family members with folic acid ^{∘}FA) using ELISA. Mouse FOLR1 was coated on the plate and was pre-incubated with or without 100 μM FA before adding the VHHs. Data were fitted by non-linear regression using GraphPad Prism 9 software.

[4] = target: T4, mouse folate receptor alpha expressed on transfected HEK293T cells (mouse, UniProt P35846 25-232); assay: flow cytometry on HEK293T cells overexpressing mouse FOLR1, His tag detection, PE MFI, non-linear fit
T4 construct: also called cell-expressed mouse FRα
Experimental: as §3

[5] = target: T5, human folate receptor beta (FRβ) (human, UniProt P14207 17-230, limits assumed); assay: method not named (follows the ELISA of Example 3)
T5 construct: also called hFOLR2; human FOLR2

[6] = target: T1, mouse folate receptor alpha (mFRα), …; assay: BLI, periplasmic extract, FRα on AR2G biosensors
Experimental: (§4) After panning of core76/77 on human and mouse folate receptor alpha ^{∘}FRα), […] were randomly selected from the second and third rounds and analyzed by ELISA on both human and mouse FRα for the presence of FRα-specific VHHs in their periplasmic extracts ^{∘}PE). This led to the identification of 98 hits. For these 98 hits, the off-rate ^{∘}koff) in the PE was determined by biolayer interferometry ^{∘}BLI) on both mouse and human FRα that was directly immobilized onto AR2G biosensors. The off-rates were calculated using a 1:1 binding model. […] Abbreviations: SE: standard error.

[7] = target: T2, human folate receptor alpha (hFRα), …; assay: BLI, periplasmic extract, FRα on AR2G biosensors
Experimental: as §4

[8] = target: T1, mouse folate receptor alpha (mFRα), …; assay: ELISA, periplasmic extract
Source text: (§5) From the lymphocytes of each llama a separate VHH library was constructed to select and screen for the presence of antigen-specific VHHs. To this end, total RNA from peripheral blood lymphocytes was used as template for first strand cDNA synthesis with an oligo ^{∘}dT) primer. Using this cDNA, the VHH encoding sequences were amplified by PCR, digested with PstI and NotI, cloned into the PstI and NotI sites of the phagemid vector pMECS and transformed into E. coli to generate VHH libraries. To enrich these libraries for FRα ^{∘}or FOLR1, as used interchangeably herein)-specific VHHs, a combinatorial panning approach on recombinant human and mouse FOLR1 was used followed by random selection and screening of clones by ELISA for the presence of antigen-specific VHHs in their periplasmic extracts ^{∘}PEs). In order to gauge the cross-reactivity for human and mouse FOLR1, each clone was tested on both antigens.
as §4

[9] = target: T2, human folate receptor alpha (hFRα), …; assay: ELISA, periplasmic extract
Source text: as §5, §4

[10] = target: T1, mouse folate receptor alpha (mFRα), …; assay: ELISA on recombinant mouse FOLR1, cMyc tag detection, normalised binding, non-linear fit
Experimental: as §3
(§6) In a first step, binding affinity and cross-reactivity of the purified VHHs to human and mouse FRα was assessed by ELISA, using detection of the cMyc tag ^{∘}FIG. 1A-B). […] 2HFO19 ^{∘}family 1) was the best binder of all tested VHHs to both mouse and human FRα with an EC₅₀ of 0.1 nM and 0.4 nM respectively ^{∘}FIG. 1A-B).

[11] = target: T2, human folate receptor alpha (hFRα), …; assay: ELISA on recombinant human FOLR1, cMyc tag detection, normalised binding, non-linear fit
Experimental: as §3, §6

[12] = target: T2, human folate receptor alpha (hFRα), …; assay: competition AlphaLISA against 2MFR67-Flag3-His6 on human FRα
Experimental: Secondly, the variants were analysed for the capacity to compete with binding of family 3 VHH 2MFR67 to human FRα in a competition AlphaLISA, which is a homogeneous assay without wash steps. In here, human FRα biotinylated through an Avi-tag ^{∘}FO1-H82E2, AcroBiosystems) is captured on streptavidin coated Alpha Donor beads ^{∘}Perkin Elmer, Cat nr. 6760002), while the 2MFR67 is captured on anti-Flag antibody AlphaLISA acceptor beads ^{∘}Perkin Elmer, Cat nr. AL112C). Binding of 2MFR67 to the FRα leads to an energy transfer from one bead to the other, ultimately producing a fluorescent signal. To each well of white low binding 384-well microtitre plates ^{∘}F-bottom, Greiner Cat nr 781904), 5 μl of serial-diluted VHHs are mixed with 5 μl of 2.5 nM monovalent 2MFR67-Flag3-His6 and 5 μl of 15 nM biotinylated human FRα protein. After an incubation for 1 hour at room temperature, streptavidin coated Alpha Donor beads and anti-Flag AlphaLISA acceptor beads were added to a final concentration of 20 μg/mL each in a final volume of 25 μl for an incubation of 1 hour at room temperature in the dark. Interaction between beads was assessed after illumination at 680 nm and reading at 615 nm of on an Ensight instrument. Curve fitting is done in Graphpad Prism 9.0 using 4PL non-linear regression analysis.

[13] = target: T1, mouse folate receptor alpha (mFRα), …; assay: ELISA on mouse FRα, anti-VHH detection
Procedure, shortened: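 Binding of VHH constructs to mouse folate receptor alpha across a range of doses was measured by ELISA, with an anti-VHH reagent used for detection. The EC50 was taken from the dose-response curve.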

[14] = target: T2, human folate receptor alpha (hFRα), …; assay: ITC, VHH injected into 6.5 µM glycosylated human FOLR1
Source text: (§7) To exclude the presence of a potential additional binding site mediated by the CDR4 region, we determined the stoichiometry if the humanized variant h1 2HFO42 (P01500001) and h1 2MFR67 (P01500005) interaction with human FOLR1 in isothermal titration […] (ITC) studies, using glycosylated human FOLR protein (AcroBiosystems Cat. Nr F01-H52H1). All proteins were dialysed overnight to PBS buffer and concentrated using Amicon Ultra 10 kDa cut-off centrifugal filter devices. Human FOLR1 was used at a concentration of 6.5 μM in the cell. Titrations comprised 26×1.5 μL injections of VHH into the protein, with 90 s intervals. An initial injection of ligand (0.4 μL) was made and discarded during data analysis. All data were performed at room temperature. The data were fitted to a single binding site model using the PEAQ ITC analysis software provided by the manufacturer.
Similarly, a stoichiometry of 1:1 was determined for the 2MFR67-FOLR1 interaction. When comparing the thermodynamic parameters, binding of 2MFR67 to FOLR1 comes with an entropic penalty, whereas the entropic contribution for humanised 2HFO42-FOLR1 binding is favorable. This could be a consequence of the CDR4 loop having more freedom in 2MFR67, resulting in an entropic penalty upon binding. […]

[15] = target: T2, human folate receptor alpha (hFRα), …; assay: ITC, VHH injected into 6.5 µM glycosylated human FOLR1 in PBS, room temperature, single binding site model
Source text: as §7

[16] = target: T1, mouse folate receptor alpha (mFRα), …; assay: BLI, Avi-biotinylated FRα on streptavidin biosensors, VHH 100 nM
Experimental: (§8) The binding of humanized variants of 2HFO42 was assessed by kinetic binding analysis to mouse and human FRα protein, biotinylated via an Avi-tag, captured on streptavidin biosensors by biolayer interferometry ^{∘}BLI), essentially as described earlier. VHHs were analysed at 100 nM concentration, and off-rates were determined using fitting of 1:1 langmurian interaction. Dissociation constants were compared to 2HFO42^{∘}Q1E, Q5V, Q108L) ^{∘}P101500004) and 2MFR67 ^{∘}Q1E, Q5V, Q108L) ^{∘}P0150000), respectively.

[17] = target: T2, human folate receptor alpha (hFRα), …; assay: as above
Experimental: as §8

T2 sequence (P15328 25-233 limits assumed): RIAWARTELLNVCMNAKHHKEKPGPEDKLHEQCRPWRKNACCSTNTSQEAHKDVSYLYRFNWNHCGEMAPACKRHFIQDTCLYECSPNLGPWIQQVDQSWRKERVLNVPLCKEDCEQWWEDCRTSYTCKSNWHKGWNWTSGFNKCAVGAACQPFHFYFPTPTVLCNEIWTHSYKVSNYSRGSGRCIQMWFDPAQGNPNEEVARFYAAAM
T1 sequence (P35846 25-232 limits assumed): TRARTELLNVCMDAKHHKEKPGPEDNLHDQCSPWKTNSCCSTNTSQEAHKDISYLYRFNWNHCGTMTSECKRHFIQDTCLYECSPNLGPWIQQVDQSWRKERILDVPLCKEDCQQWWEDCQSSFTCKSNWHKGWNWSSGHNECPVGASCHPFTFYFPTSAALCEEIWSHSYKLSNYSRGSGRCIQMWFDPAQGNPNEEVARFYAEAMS
T4 sequence (P35846 25-232 limits assumed): as above
T5 sequence (P14207 17-230 limits assumed): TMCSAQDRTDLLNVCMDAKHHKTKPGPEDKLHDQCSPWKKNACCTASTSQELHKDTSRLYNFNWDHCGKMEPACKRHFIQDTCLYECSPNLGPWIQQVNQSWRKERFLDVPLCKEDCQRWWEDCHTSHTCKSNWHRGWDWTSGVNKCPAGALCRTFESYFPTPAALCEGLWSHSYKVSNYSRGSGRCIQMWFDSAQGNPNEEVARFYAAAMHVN
T3 sequence (P15328 25-234 limits assumed): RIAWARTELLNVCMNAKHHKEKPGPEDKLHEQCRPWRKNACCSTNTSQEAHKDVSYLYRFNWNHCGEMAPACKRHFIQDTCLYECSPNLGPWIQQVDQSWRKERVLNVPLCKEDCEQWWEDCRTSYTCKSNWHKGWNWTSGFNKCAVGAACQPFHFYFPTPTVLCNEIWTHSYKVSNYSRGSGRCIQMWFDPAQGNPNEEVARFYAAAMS

| Kd [1] [nM] | koff [1] [s⁻¹] | kon [1] [M⁻¹ s⁻¹] | Kd [2] [nM] | koff [2] [s⁻¹] | kon [2] [M⁻¹ s⁻¹] | EC50 [3] [nM] | EC50 [4] [nM] | binding result [5] | koff [6] [s⁻¹] | koff [7] [s⁻¹] | PE-ELISA (ratio to uncoated well) [8] | PE-ELISA (ratio to uncoated well) [9] | EC50 [10] [nM] | EC50 [11] [nM] | IC50 [12] [nM] | EC50 (read off the curve) [13] [nM] | stoichiometry (ITC) [14] | -TΔS [15] [kcal/mol] | Kd [15] [nM] | Binder | other results |
| --- | --- | --- | --- | --- | --- | --- | --- | --- | --- | --- | --- | --- | --- | --- | --- | --- | --- | --- | --- | --- | --- |
| 7.86 | 0.0197 | 2.5e+06 | 662 | 0.182 | 275000 | 7 | 1.4 | no binding | 0.0135 | 0.0582 | 4.9 | 4.8 | 0.3 | 20.3 | – | – | – | – | – | VHH 3HFO26 (family 1) (VHH) VHH: QVQLQESGGGLVQPGGSLRITCVASGFPFSTYYMSWVRQAPGKGLEWVSGINSNGGVIDYADSVKGRFTISRDNAKNTLYLQLNSLKPEDTALYFCARGRAFVATMPSSLRGQGTQVTVSS | – |
| – | – | – | – | – | – | – | – | – | – | – | – | – | – | – | 5.53 | ~3 | 1 | 3.57 | 18.2 | P01500005: 2MFR67(Q1E, Q5V, Q108L)-HIS6 (VHH, Entry includes the tag; also called 2MFR67 (P01500005); P0150005) VHH: EVQLVESGGGLVQAGGSLRLSCAASGSGFSGMIMGWYRQAPGKQRELVATVTSHGTTNYADSVKGRFTISREDSKNTVLLQMNSLKPEDTAVYYCNAHFPGIYWGKGTLVTVSS | ΔG [15]: -10.6 kcal/mol; ΔH [15]: -14.1 kcal/mol; koff [16]: 0.000532 s⁻¹; koff [17]: 0.00353 s⁻¹ |

The next lines start with the binder.

| Binder | Kd [1] [nM] | koff [1] [s⁻¹] | kon [1] [M⁻¹ s⁻¹] | Kd [2] [nM] | koff [2] [s⁻¹] | kon [2] [M⁻¹ s⁻¹] | EC50 [3] [nM] | EC50 [4] [nM] | binding result [5] | koff [6] [s⁻¹] | koff [7] [s⁻¹] | PE-ELISA (ratio to uncoated well) [8] | PE-ELISA (ratio to uncoated well) [9] | EC50 [10] [nM] | EC50 [11] [nM] | IC50 [12] [nM] | EC50 (read off the curve) [13] [nM] | stoichiometry (ITC) [14] | -TΔS [15] [kcal/mol] | Kd [15] [nM] | other results |
| --- | --- | --- | --- | --- | --- | --- | --- | --- | --- | --- | --- | --- | --- | --- | --- | --- | --- | --- | --- | --- | --- |
| VHH 2MFR7 (family 1) (VHH, also called 2MFRO7) VHH: QVQLQESGGGLVQPGGSLRLSCAASGFPFSTYYMSWVRQAPGKGLEWVSGINSNGGVIDYADSVKGRFTISRDNAKNTLYLQLNSLKPEDTALYFCARGRAFVATMPSSLRGQGTQVTVSS | 16.7 | 0.0527 | 3.15e+06 | 70.9 | 0.0849 | 1.2e+06 | 20.2 | 1.5 | no binding | 0.0542 | 0.108 | 14.1 | 12.4 | 0.6 | 11.6 | – | – | – | – | – | – |
| P01500001 = humanised variant 1 (h1) 2HFO42-His6: 2HF042(Q1E, Q5V, A14P, V40A, L79Y, K83R, Q108L)-HIS6 (VHH, Entry includes the tag; also called P0150001; humanised 2HFO42) VHH: EVQLVESGGGLVQPGGSLRLSCAASGSGFSGMIMGWYRQAPGKQRELVATVTSHGTTNYADSVKGRFTISRDNAKNTVYLQMNSLRPEDTAVYYCNAHFPGIYWGKGTLVTVSS | – | – | – | – | – | – | – | – | – | – | – | – | – | – | – | 37.3 | ~4 | 1 | -3.04 | 39.2 | ΔG [15]: -10.1 kcal/mol; ΔH [15]: -7.07 kcal/mol; koff [16]: 0.00126 s⁻¹; koff [17]: 0.011 s⁻¹ |
